The target of assay [1] is HLA-B*15:09. The assay is described as follows: IEDB peptide-MHC binding, purified MHC/competitive/fluorescence; filed as Kd, often an IC50 or EC50 that approximates it; ≥ and ≤ were set here for values at or beyond the usual limits of such assays.
For the next assay, the target named is HLA-B*39:01. The assay is described as above.
The target in a further assay is HLA-B*35:01. Described as above. The following applies: source organism: Orthomarburgvirus marburgense.
For the next assay, the target named is HLA-A*26:02. Described as above. The following applies: source organism: Orthomarburgvirus marburgense.
The target in a further assay is HLA-A*68:02. The assay is described as follows: IEDB peptide-MHC binding, purified MHC/direct/fluorescence; filed as Kd, often an IC50 or EC50 that approximates it; ≥ and ≤ were set here for values at or beyond the usual limits of such assays. As to conditions: source organism: Marburg virus - Musoke, Kenya, 1980.
Assay [2] deals with HLA-A*01:01. The assay is described as above.
The target in a further assay is HLA-B*58:01. The description is as above.
In another assay the target is HLA-A*02:01. Described as above.
In assay [3] the target is HLA-B*15:01. Described as above.
The next assay concerns the target HLA-B*48:01. The description is as above.
In assay [4] the target is HLA-B*08:01. The assay is described as above.
Assay [5] deals with HLA-B*57:01. The assay is described as above.
In a further assay the target is HLA-A*69:01. The assay is described as above.
Another assay has as its target HLA-B*07:02. Described as above. As to conditions: source organism: Marburg virus - Musoke, Kenya, 1980.
The target of the next assay is HLA-A*26:03. The description is as above. As to conditions: source organism: Orthomarburgvirus marburgense.
The target of assay [6] is HLA-A*11:01. The description is as above. As to conditions: source organism: Marburg virus - Musoke, Kenya, 1980.
A further assay deals with HLA-B*27:05. The assay is described as above.
The target in another assay is HLA-A*31:01. The description is as above.
Assay [7] concerns the target HLA-B*15:17. The description is as above.
The target of assay [8] is HLA-B*46:01. Described as above.
The target of assay [9] is HLA-A*11:01. The assay is described as follows: IEDB peptide-MHC binding, purified MHC/competitive/fluorescence; filed as Kd, often an IC50 or EC50 that approximates it; ≥ and ≤ were set here for values at or beyond the usual limits of such assays. As to conditions: source organism: Rickettsia canadensis.
In assay [10] the target is HLA-A*26:01. The assay is described as follows: IEDB peptide-MHC binding, purified MHC/direct/fluorescence; filed as Kd, often an IC50 or EC50 that approximates it; ≥ and ≤ were set here for values at or beyond the usual limits of such assays. As to conditions: source organism: Candidatus Rickettsia tarasevichiae.
The target of assay [11] is HLA-B*15:09. The description is as above. The following applies: source organism: Candidatus Rickettsia tarasevichiae.
Assay [12] concerns the target HLA-B*38:01. Described as above. The following applies: source organism: Candidatus Rickettsia tarasevichiae.
A further assay has as its target HLA-B*40:01. The description is as above. As to conditions: source organism: Rickettsia canadensis.
The target of the next assay is HLA-A*03:01. The assay is described as above. The following applies: source organism: Rickettsia canadensis.
The target in assay [13] is HLA-A*01:01. The assay is described as follows: IEDB peptide-MHC binding, purified MHC/competitive/fluorescence; filed as Kd, often an IC50 or EC50 that approximates it; ≥ and ≤ were set here for values at or beyond the usual limits of such assays. The following applies: source organism: Human immunodeficiency virus 1.
Assay [14] deals with HLA-B*15:01. The description is as above.
Assay [15] addresses HLA-B*38:01. Described as above. As to conditions: source organism: Human immunodeficiency virus 1.
For another assay, the target named is HLA-A*30:01. The assay is described as above. As to conditions: source organism: Human immunodeficiency virus 1.
Assay [16] addresses HLA-B*08:01. Described as above. The following applies: source organism: Human immunodeficiency virus 1.
For assay [17], the target named is HLA-B*15:17. The assay is described as above. As to conditions: source organism: Human immunodeficiency virus 1.
Assay [18] addresses HLA-A*26:01. The assay is described as above. The following applies: source organism: Cryptosporidium parvum Iowa II.
The next assay concerns the target HLA-A*29:02. The description is as above. As to conditions: source organism: Cryptosporidium parvum Iowa II.
The target in a further assay is HLA-B*27:03. Described as above. As to conditions: source organism: Cryptosporidium parvum Iowa II.
For assay [19], the target named is HLA-B*57:01. The assay is described as above. As to conditions: source organism: Cryptosporidium parvum Iowa II.
A further assay has as its target HLA-A*80:01. Described as above. As to conditions: source organism: Cryptosporidium parvum Iowa II.
The target in another assay is HLA-B*51:01. Described as above. The following applies: source organism: Cryptosporidium parvum Iowa II.
For assay [20], the target named is HLA-B*46:01. Described as above. As to conditions: source organism: Cryptosporidium parvum Iowa II.
In the next assay the target is HLA-B*18:01. The assay is described as above. As to conditions: source organism: Cryptosporidium parvum Iowa II.
Setting [21] is: source organism: Orthomarburgvirus marburgense.
Where [22] appears, read: source organism: Marburg virus - Musoke, Kenya, 1980.
Where [23] appears, read: source organism: Rickettsia canadensis.
Where [24] appears, read: source organism: Human immunodeficiency virus 1.
Where [25] appears, read: source organism: Cryptosporidium parvum Iowa II.

Regarding NQECWDSVF, the Kd was 2.52 µM with HLA-B*15:09 [1] (setting [21]); 0.364 µM with HLA-B*39:01 (setting [21]); 0.216 µM with HLA-B*35:01; 0.384 µM in the assay with HLA-A*26:02; at least 20 µM in the assay with HLA-A*68:02; at least 20 µM with HLA-A*01:01 [2] (setting [22]). Also, the Kd was at least 20 µM with HLA-B*58:01 (setting [22]); at least 20 µM with HLA-A*02:01 (setting [22]); 0.373 µM with HLA-B*15:01 [3] (setting [22]); at least 20 µM in the assay with HLA-B*48:01 (setting [22]); at least 20 µM with HLA-B*08:01 [4] (setting [21]); at least 20 µM with HLA-B*57:01 [5] (setting [22]). In addition, the dissociation constant (Kd) with HLA-A*69:01 (setting [22]), in the assay with HLA-B*07:02, with HLA-A*26:03, with HLA-A*11:01 [6], with HLA-B*27:05 (setting [22]) and with HLA-A*31:01 (setting [22]) was at least 20 µM each time. For the same sequence, the dissociation constant Kd with HLA-B*15:17 [7] (setting [22]) and with HLA-B*46:01 [8] (setting [22]) was at least 20 µM throughout.

Consider SSEADCFTY, for which the dissociation constant Kd was at least 20 µM with HLA-A*11:01 [9]; 0.0553 µM with HLA-A*01:01 [2] (setting [23]); at least 20 µM with HLA-B*58:01 (setting [23]); at least 20 µM with HLA-A*26:01 [10]; at least 20 µM with HLA-B*15:09 [11]; at least 20 µM with HLA-A*02:01 (setting [23]). Also, the Kd with HLA-B*15:01 [3] (setting [23]), in the assay with HLA-B*38:01 [12], in the assay with HLA-B*48:01 (setting [23]), with HLA-B*08:01 [4] (source organism: Candidatus Rickettsia tarasevichiae), in the assay with HLA-B*57:01 [5] (setting [23]) and in the assay with HLA-A*69:01 (setting [23]) was at least 20 µM each time. Besides, the dissociation constant Kd is at least 20 µM with HLA-B*40:01; at least 20 µM with HLA-B*27:05 (setting [23]); at least 20 µM with HLA-A*31:01 (setting [23]); 0.0816 µM with HLA-B*15:17 [7] (setting [23]); at least 20 µM in the assay with HLA-A*03:01; at least 20 µM with HLA-B*46:01 [8] (setting [23]).

With GSEEIKSLF, the Kd in the assay with HLA-A*01:01 [13], with HLA-B*15:09 [1] (setting [24]), with HLA-B*15:01 [14] (setting [24]), with HLA-B*38:01 [15], with HLA-A*30:01 and in the assay with HLA-B*08:01 [16] was at least 20 µM each time. In the assay with HLA-B*15:17 [17], this sequence registered a dissociation constant (Kd) of 0.182 µM.

On to KLGDITLFL, for which the equilibrium dissociation constant (Kd) is at least 20 µM with HLA-A*26:01 [18]; at least 20 µM in the assay with HLA-B*39:01 (setting [25]); 0.0341 µM in the assay with HLA-A*29:02; at least 20 µM with HLA-B*15:01 [14] (setting [25]); at least 20 µM in the assay with HLA-B*27:03; at least 20 µM with HLA-B*57:01 [19]. Besides, the Kd with HLA-A*80:01 was 0.0156 µM; with HLA-B*51:01 it was at least 20 µM; with HLA-B*46:01 [20], at least 20 µM; with HLA-B*18:01, at least 20 µM.

By Kd is commonly meant the constant that tells how readily two partners part at equilibrium.

The record behind these values is the Immune Epitope Database (IEDB).
